The values that follow are results of earlier work, collected in article PMC4884208.

Test systems include Tyr113; Tyr117; Tyr22; Tyr25; Tyr28; Tyr52; Tyr73; Tyr75.
Common to all, as to test: UV-vis
The target of another data set is Tyr103 (UniProt position 122, KVGINYWLAHK). The conditions noted are these: 25.0 C, 0.5 M Gdn-HCl.
A further data set has as its target Tyr18 (UniProt position 37, KDLKGYGGVSL). The conditions noted are these: 25.0 C, 0.5 M Gdn-HCl.
A further data set concerns the target Tyr36 (UniProt position 55, FHTSGYDTQAI). To be noted: 25.0 C, 0.5 M Gdn-HCl.
For a further data set, the target named is Tyr50 (UniProt position 69, NDSTEYGLFQI). The conditions noted are these: 25.0 C, 0.5 M Gdn-HCl.

As for “Vipoxin neurotoxic phospholipase A2 (basic PLA2 subunit of vipoxin) (Vipera ammodytes meridionalis (inferred; organism not stated in the article))”, the pKa (commonly the negative logarithm of the acid dissociation constant) is on record as 12.17 with Tyr113; 10.45 in the data set on Tyr117; 10.45 in the data set with Tyr22; 13.23 in the data set with Tyr25; 12.17 in the data set on Tyr28; 12.17 with Tyr52. The pKa in the data set on Tyr73 is 13.23; with Tyr75 it was 10.45.
On to alpha-lactalbumin (Bos taurus), for which the pKa with Tyr103 (alkaline-denatured (D) state) is 10.3; with Tyr103 (native (N) state), 10.5; in the data set with Tyr18 (alkaline-denatured (D) state), 10.3; with Tyr18 (native (N) state), 11.8; with Tyr36 (alkaline-denatured (D) state) it was 10.3; with Tyr36 (native (N) state), 11.8. Also, the figures for the pKa in the data set with Tyr50 (alkaline-denatured (D) state) and in the data set with Tyr50 (native (N) state) were 10.3 and 12.7, respectively.
